# Data reported in patent EP4545091A1 (priority 2023, dated 2025).
# Biological target: TMPRSS2 on cells (UniProt O15393)
# Assay: cell-based or functional assay
substance,measurement,value
Trypstatin (AMBP 284-344) (peptide),"IC50, MERS-CoV spike pseudoparticle entry into CaCo-2 cells (luciferase)",78 nM
same,"IC50, SARS-CoV spike pseudoparticle entry into CaCo-2 cells (luciferase)",31 nM
